Measured values taken from the nanobody polyreactivity screen of Harvey et al. (2022).

Experiment: yeast display, Sf9 membrane polyspecificity reagent, FACS + sequencing; frameworks hold sequencing errors
In short: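 Polyreactivity labels are assigned by the sorting gate from which each nanobody was recovered. The gates were low and high (top ~1%), set on anti-HA fluorescence for expression and streptavidin fluorescence for reagent binding. Before sorting, galactose-induced (36–48 hours) yeast display cells were stained for 1 hour at 4 °C with 10% biotinylated, detergent-solubilized Sf9 membrane reagent.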

**Q.** For “QVQLVESGGGLVQAGGSLRLSCAASGFTFISYAMGWYRQAPGKERELVADISSSGDSTSYADSVKGRFTISRDNAKNTVYLQMNSLKPEDTAVYYCAAGDGYVYGEYDYWGQGTQVTVSS”, which “polyreactivity (PSR sort gate)” value is on record?
**A.** The value was “low polyreactivity”.

**Q.** Which “polyreactivity (PSR sort gate)” value does the source give for “QVQLVESGGGLVQAGGSLRLSCAASGFTFITNAMGWYRQAPGNERELVASISIGGSTNYADSVKGRFTISRDNAKNTVYLQMNSLKPEDTAVYYCAARVYRRLFLPGRFGRPLGYWGQGTQVTVSS” here?
**A.** The value was “high polyreactivity”.

**Q.** For “QVQLVESGGGLVQAGGSLRLSCAASGFTFIYYAMGRYRQAPRKERELVAAISSGGSTYYADSVKGRFTISRDNAKNTVYLQMNSLKPEDTAVYYCAAGYWWPVQYYSRYNYWGQGTQVTVSS”, which “polyreactivity (PSR sort gate)” value is on record?
**A.** Its value is “high polyreactivity”.

**Q.** For “QVQLVESGGGLVQAGGSLRLSCAASGFTFIYYAMGWYRQAPGKERELVAAISRVDSTYYADSVKGRFTISSDNAKNTIYLQMNRLKPEDTAVYYFAAASQVRRDHGYWGQGTQVTVSS”, which “polyreactivity (PSR sort gate)” value is on record?
**A.** Its value is “low polyreactivity”.

**Q.** For “QVQLVESGGGLVQAGGSLRLSCAASGFTFKAYAMGWYRQAPGKERELVAAITKSGGRTFYADSVKGRFTISRDTAKNTVYFQMNSLKPEDTAVYYCAASYTVYYWGQGTQVTVSS”, which “polyreactivity (PSR sort gate)” value is on record?
**A.** Its value is “high polyreactivity”.

**Q.** For “QVQLVESGGGLVQAGGSLRLSCAASGFTFKAYAMGWYRQAPGKERELVAAITRSGGRTYYADSVKGRFTISRDNAKNTVYLQMNSLKPEDTAVYYCARDYTRYAYDHWGQGTQVTVSS”, which “polyreactivity (PSR sort gate)” value is on record?
**A.** The value was “high polyreactivity”.

**Q.** For “QVQLVESGGGLVQAGGSLRLSCAASGFTFKFNAMGWYRQAPGKERELVAAISYSGGSTYYADSVKGRFTISRDNAKNTVYLQMNSLKPEDTAVYYCAARAYWYGASYYYWGQGPQVTVSS”, which “polyreactivity (PSR sort gate)” value is on record?
**A.** Its value is “high polyreactivity”.

**Q.** Which “polyreactivity (PSR sort gate)” value does the source give for “QVQLVESGGGLVQAGGSLRLSCAASGFTFKFNTMGWYRQAPGKERELVAANSWRGGDTSYADSVKGRFTISRENAKNTVFLQMYSLKPEDNAVYYCAARSTSIGQRSLHYGYWGQGTQVTVSS” here?
**A.** Its value is “low polyreactivity”.

**Q.** Which “polyreactivity (PSR sort gate)” value does the source give for “QVQLVESGGGLVQAGGSLRLSCAASGFTFKGNAMGWYIQAPGKERELVATITQSAGYTYYADSVKGRFTISRDNAKNTVYLQLNSLKPEDTAVYYCNADPITLYYYSWYNYWGQGTQVTVSS” here?
**A.** The value was “low polyreactivity”.

**Q.** For “QVQLVESGGGLVQAGGSLRLSCAASGFTFKGYAMGWYRQAPGKERELVAAITRGGSTYYADSVKGRFTISRDNAKNTVYLLMNSLKPEDTAVYYCAARGRGHGTTPNDYWGQGTQVTVSS”, which “polyreactivity (PSR sort gate)” value is on record?
**A.** Its value is “high polyreactivity”.

**Q.** Which “polyreactivity (PSR sort gate)” value does the source give for “QVQLVESGGGLVQAGGSLRLSCAASGFTFKKNAMGWYRQATGKERELVAAIRSGTSTKYADSVKGRFTISRDNAKNTVYLQMNSLKPEDTAVYYCAAEEPEYLATWRNRRYDYWGQGTQVTVSS” here?
**A.** Its value is “low polyreactivity”.

**Q.** With “QVQLVESGGGLVQAGGSLRLSCAASGFTFKSYAMGWSRQAPGKERELVAAISRGGSTYYADSVKGRFTISRDNAKNTVYLQMNSLKPEDTAVYYCNKTRYSRSYYEYDYWGQGTQVTVSS” as the sequence, how does the “polyreactivity (PSR sort gate)” value read?
**A.** The value was “low polyreactivity”.

**Q.** For “QVQLVESGGGLVQAGGSLRLSCAASGFTFKYNAMGWYRQAPGKERELVAGITLRGGSTYYADSVKGRFTISRDNAKNTVYLQMNSLKPEDTAVYYCGAAASNWREYWYWGQGTQVTVSS”, which “polyreactivity (PSR sort gate)” value is on record?
**A.** The value was “low polyreactivity”.

**Q.** For “QVQLVESGGGLVQAGGSLRLSCAASGFTFKYNAMGWYRQAPGKERELVASISRGSSTNYADSVKGRFTISRDNAKNTVYLQMNSLKPEDTAVYYCAKGYRPWGSYDYWGQGTQVTVSS”, which “polyreactivity (PSR sort gate)” value is on record?
**A.** Its value is “high polyreactivity”.

**Q.** For “QVQLVESGGGLVQAGGSLRLSCAASGFTFKYNVMGWYRQAPGKERELVAAISKRGGNTYYADSVKGRFTISRDNAKNTVYLQMNSLKPEDTAVYYCAADPTSPETSGQGYDYWGQGTQVTVSS”, which “polyreactivity (PSR sort gate)” value is on record?
**A.** The value was “high polyreactivity”.

**Q.** For “QVQLVESGGGLVQAGGSLRLSCAASGFTFKYYAMGWYRPAPGKERELVAAIRRSAGSTNYADSVKGRFTISRDNAKNTVYLQMNSLKPEDTAVYYCNTVGTRQPMDYWGQGTQVTVSS”, which “polyreactivity (PSR sort gate)” value is on record?
**A.** The value was “high polyreactivity”.

**Q.** With “QVQLVESGGGLVQAGGSLRLSCAASGFTFKYYVMGWSRQAPGKERELVASLSKRGGSTRYADSVKGRFTISRDNAKTTFYLQMHSLKPEDTAVYYCAAAFVRPPPYVGYSRFDYWGQGTQVTLSS” as the sequence, how does the “polyreactivity (PSR sort gate)” value read?
**A.** The value was “high polyreactivity”.

**Q.** For “QVQLVESGGGLVQAGGSLRLSCAASGFTFKYYVMGWYRQAPGKAREWVAAITNGGSTYYADSVKGRFTISRDNAKNTVYLQMNSLKPEDTAVYYCAASAYYHWLFDYRGQGTQVTVSS”, which “polyreactivity (PSR sort gate)” value is on record?
**A.** The value was “high polyreactivity”.

**Q.** For “QVQLVESGGGLVQAGGSLRLSCAASGFTFKYYVMGWYRQAPGKERELVASISKRGGSRNYADSVKGRFTISRDNAKNTVYLQMNSLKPEDTAVYYCAADYPATSGPRHYYWGQGTQVTVSS”, which “polyreactivity (PSR sort gate)” value is on record?
**A.** The value was “high polyreactivity”.

**Q.** For “QVQLVESGGGLVQAGGSLRLSCAASGFTFLDSYAMGWYRQAPGKERELVAGITWSVGTTYYADSVKGRFTISRDNAKNTVYLHMNSLKPEDTAVYYCNAVIDVHDPEYDYWGQGTQVTVSS”, which “polyreactivity (PSR sort gate)” value is on record?
**A.** Its value is “low polyreactivity”.

**Q.** For “QVQLVESGGGLVQAGGSLRLSCAASGFTFLGNAMGWYRQAPGKERELVATITSGGNTKYADSVKGRFTISRDNAKNTVYFQINSLKPEDTAVYYFARDRKRQADDICEFDYWGQGSQVTVSS”, which “polyreactivity (PSR sort gate)” value is on record?
**A.** The value was “low polyreactivity”.

**Q.** With “QVQLVESGGGLVQAGGSLRLSCAASGFTFLGNVMGWYRQAPGKERELVAAISITGSTSYADSVKGRFTISRDNAKNTVYLQMNSLKPEDTAVYYCAADGGQVDDSATRLYYWGQGTQVTVSS” as the sequence, how does the “polyreactivity (PSR sort gate)” value read?
**A.** The value was “high polyreactivity”.

**Q.** For “QVQLVESGGGLVQAGGSLRLSCAASGFTFLINAMGWYRQAPGKERELVAAIRSGGSTNYADSVKGRFTISRDNAKNSVYFQMNSLKPEDTAVYYCAARRYYPYKYRYGYWGQGTQVTVSS”, which “polyreactivity (PSR sort gate)” value is on record?
**A.** The value was “high polyreactivity”.

**Q.** Which “polyreactivity (PSR sort gate)” value does the source give for “QVQLVESGGGLVQAGGSLRLSCAASGFTFLKNAMGWYRQAPGKERELVAAITSSGGRTYYADSVKGRFTISRDNAKNTVYLQMNSLKPEDTAVYFCIKGPLPGYDYWGQGTQVTVSS” here?
**A.** Its value is “high polyreactivity”.

**Q.** With “QVQLVESGGGLVQAGGSLRLSCAASGFTFLLYAMGWYRQAPGKERELVAAITWSTGNTYYADSVKGRFTISRDNAKNTVYLQMNSLKPEDTAVYYCYAEYLVITWYGGVEFDYWGQGTQVTVSS” as the sequence, how does the “polyreactivity (PSR sort gate)” value read?
**A.** The value was “low polyreactivity”.

**Q.** For “QVQLVESGGGLVQAGGSLRLSCAASGFTFLPAYAMGWYRQAPGKERELVAAITRGGSTYYADSVKGRFTISRDNAKNTVYLQMNSLKPEDSAVYYCNADQKFGFYRSVGDDYWGQGTQVTVSS”, which “polyreactivity (PSR sort gate)” value is on record?
**A.** Its value is “low polyreactivity”.

**Q.** With “QVQLVESGGGLVQAGGSLRLSCAASGFTFLPYVMGWYRQAPGKERELVAGITRTGSTNYADSVKGRFTISRDNAKNTVYLQMNSLKPEDTAVYYCAARLKYWGDYYYWGQGTQVTVSS” as the sequence, how does the “polyreactivity (PSR sort gate)” value read?
**A.** The value was “low polyreactivity”.

**Q.** With “QVQLVESGGGLVQAGGSLRLSCAASGFTFLSYAMGWYRQAPGKERELVAAISRSGGSTYYADSVKGRFTISRDNAKNTVYLQMNSLKPEDTAVYYCAARSAFRNQFSRNNYWGQGTQVTVSS” as the sequence, how does the “polyreactivity (PSR sort gate)” value read?
**A.** Its value is “high polyreactivity”.

**Q.** For “QVQLVESGGGLVQAGGSLRLSCAASGFTFLWYAMGWYRQAPGKERELVAGISSDGSTYADSVKGRFTISRDNAKNTVYLQMNSLKQEDTAVYYCAAVNNSSIRDNDYWGQGTQVTVSS”, which “polyreactivity (PSR sort gate)” value is on record?
**A.** Its value is “low polyreactivity”.

**Q.** Which “polyreactivity (PSR sort gate)” value does the source give for “QVQLVESGGGLVQAGGSLRLSCAASGFTFLYNAMGWYRQAPGKERELVAAIDSGGNTNYADSVKGRFTISRDNAKNTVYLQMNSLKPEDTAVYYCAADVVSGGQGTADYDYWGQGTQVTVSS” here?
**A.** Its value is “low polyreactivity”.

**Q.** With “QVQLVESGGGLVQAGGSLRLSCAASGFTFNAHAMGWYRQAPGKERELVAVITRSGGRTYYADSVKGRFTISRDNAKNTVYLQMNSLKPEDTAVYYCAKEGPSRVYQGTDSASDYWGQGTQVTVSS” as the sequence, how does the “polyreactivity (PSR sort gate)” value read?
**A.** Its value is “high polyreactivity”.
